Experimental data published in PMC12724371 (Journal of Virology, 2025).

Columns and labels:
Test in all cases: BLI
Settings in all cases: both partners purified
[1] = molecular target: T1, SARS-CoV spike S2 subunit (SARS-CoV, strain  (entry …, UniProt P59594))
T1 construct: source: bought: Sino Biological

[2] = molecular target: T2, SARS-CoV-2 spike S2 subunit (SARS-CoV-2, Wuhan-Hu-1 reference, UniProt P0DTC2)
T2 construct: source: bought: Sino Biological

[3] = molecular target: T3, MERS spike S2 subunit (MERS-CoV, strain  (entry: …, UniProt K9N5Q8))
T3 construct: source: bought: Sino Biological

[4] = molecular target: SARS-CoV full-length spike protein (SARS-CoV, strain  (entry …, UniProt P59594))
[5] = molecular target: RatG13 full-length spike protein (Bat coronavirus RaTG13, UniProt A0ABF7PLN6)
[6] = molecular target: MERS full-length spike protein (MERS-CoV, strain  (entry: …, UniProt K9N5Q8))
[7] = molecular target: T4, HKU-1 full-length spike protein (HCoV-HKU1, UniProt Q0ZME7)
T4 construct: also called HKU1 SP; HCoV-HKU1 full-length SP; source: bought: Sino Biological

[8] = molecular target: T5, OC-43 full-length spike protein (HCoV-OC43, UniProt P36334)
T5 construct: source: bought: Sino Biological

Measured: binding result

T3 sequence (K9N5Q8 whole entry, looked up): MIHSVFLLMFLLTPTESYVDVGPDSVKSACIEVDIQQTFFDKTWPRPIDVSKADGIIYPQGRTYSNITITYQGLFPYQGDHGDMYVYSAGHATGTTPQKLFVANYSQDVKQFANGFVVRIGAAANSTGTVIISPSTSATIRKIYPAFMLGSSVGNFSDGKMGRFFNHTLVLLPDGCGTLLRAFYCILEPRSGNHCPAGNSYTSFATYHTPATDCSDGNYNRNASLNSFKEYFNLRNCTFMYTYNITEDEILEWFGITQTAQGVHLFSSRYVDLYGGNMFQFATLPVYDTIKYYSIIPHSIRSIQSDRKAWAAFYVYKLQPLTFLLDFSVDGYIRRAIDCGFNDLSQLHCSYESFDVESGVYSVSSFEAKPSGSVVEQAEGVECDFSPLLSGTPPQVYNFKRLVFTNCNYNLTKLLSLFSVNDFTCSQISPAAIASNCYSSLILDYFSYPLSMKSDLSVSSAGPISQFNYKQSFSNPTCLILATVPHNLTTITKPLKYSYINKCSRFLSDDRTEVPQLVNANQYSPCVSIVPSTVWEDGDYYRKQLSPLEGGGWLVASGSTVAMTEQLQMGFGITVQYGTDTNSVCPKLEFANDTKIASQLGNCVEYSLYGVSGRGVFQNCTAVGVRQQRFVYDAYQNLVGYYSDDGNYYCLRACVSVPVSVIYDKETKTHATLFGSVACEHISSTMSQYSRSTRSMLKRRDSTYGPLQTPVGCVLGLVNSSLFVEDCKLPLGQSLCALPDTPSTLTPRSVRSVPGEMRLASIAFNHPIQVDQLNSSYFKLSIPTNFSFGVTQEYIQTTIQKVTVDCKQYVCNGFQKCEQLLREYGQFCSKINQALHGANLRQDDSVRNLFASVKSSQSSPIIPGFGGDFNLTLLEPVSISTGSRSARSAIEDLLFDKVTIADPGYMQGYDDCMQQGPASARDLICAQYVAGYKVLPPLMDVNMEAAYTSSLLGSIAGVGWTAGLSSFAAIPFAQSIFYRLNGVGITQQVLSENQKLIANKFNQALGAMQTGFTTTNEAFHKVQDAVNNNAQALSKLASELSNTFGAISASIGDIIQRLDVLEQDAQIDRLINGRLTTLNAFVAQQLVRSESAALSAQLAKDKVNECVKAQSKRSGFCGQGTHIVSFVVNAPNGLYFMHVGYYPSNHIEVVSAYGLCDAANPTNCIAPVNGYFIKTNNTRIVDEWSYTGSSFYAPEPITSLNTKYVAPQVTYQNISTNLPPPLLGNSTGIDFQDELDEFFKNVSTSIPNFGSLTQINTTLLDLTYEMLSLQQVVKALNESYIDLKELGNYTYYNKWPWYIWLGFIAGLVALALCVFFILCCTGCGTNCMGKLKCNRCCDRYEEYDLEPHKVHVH
Sequence of MERS full-length spike protein (MERS-CoV, strain  (K9N5Q8 18-1353): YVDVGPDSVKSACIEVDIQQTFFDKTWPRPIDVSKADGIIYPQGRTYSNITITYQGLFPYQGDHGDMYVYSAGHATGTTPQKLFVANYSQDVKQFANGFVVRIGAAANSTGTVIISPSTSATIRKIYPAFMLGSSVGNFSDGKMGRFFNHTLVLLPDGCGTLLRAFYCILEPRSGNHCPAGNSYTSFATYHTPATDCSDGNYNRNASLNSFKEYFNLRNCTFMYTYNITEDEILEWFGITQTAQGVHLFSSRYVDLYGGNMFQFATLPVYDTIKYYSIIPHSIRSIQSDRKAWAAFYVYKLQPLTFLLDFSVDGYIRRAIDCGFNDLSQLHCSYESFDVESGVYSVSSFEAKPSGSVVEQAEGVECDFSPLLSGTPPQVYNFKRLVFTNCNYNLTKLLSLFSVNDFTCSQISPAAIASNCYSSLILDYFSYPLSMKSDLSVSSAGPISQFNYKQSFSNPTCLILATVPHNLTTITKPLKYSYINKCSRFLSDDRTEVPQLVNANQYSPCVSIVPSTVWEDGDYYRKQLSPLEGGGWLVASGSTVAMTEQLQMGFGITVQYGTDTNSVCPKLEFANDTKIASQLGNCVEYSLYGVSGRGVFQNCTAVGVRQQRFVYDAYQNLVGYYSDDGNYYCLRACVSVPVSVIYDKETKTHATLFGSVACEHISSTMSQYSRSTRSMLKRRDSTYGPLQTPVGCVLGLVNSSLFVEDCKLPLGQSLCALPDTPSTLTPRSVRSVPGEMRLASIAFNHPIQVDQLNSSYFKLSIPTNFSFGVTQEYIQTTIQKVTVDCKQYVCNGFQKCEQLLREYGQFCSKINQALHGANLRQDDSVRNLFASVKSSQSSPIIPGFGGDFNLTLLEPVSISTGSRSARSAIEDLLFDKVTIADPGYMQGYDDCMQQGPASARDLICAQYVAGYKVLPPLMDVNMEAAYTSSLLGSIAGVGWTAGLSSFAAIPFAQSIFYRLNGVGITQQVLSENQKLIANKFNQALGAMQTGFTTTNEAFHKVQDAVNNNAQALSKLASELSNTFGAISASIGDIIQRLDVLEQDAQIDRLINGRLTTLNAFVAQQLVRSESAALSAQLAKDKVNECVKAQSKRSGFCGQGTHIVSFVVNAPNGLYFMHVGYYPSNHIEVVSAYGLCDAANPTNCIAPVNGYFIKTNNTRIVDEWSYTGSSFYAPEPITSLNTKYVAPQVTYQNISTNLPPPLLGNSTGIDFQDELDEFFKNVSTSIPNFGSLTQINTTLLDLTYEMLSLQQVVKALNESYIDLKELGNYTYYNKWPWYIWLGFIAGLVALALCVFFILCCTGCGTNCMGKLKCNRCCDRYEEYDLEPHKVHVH
T4 sequence (Q0ZME7 13-1351): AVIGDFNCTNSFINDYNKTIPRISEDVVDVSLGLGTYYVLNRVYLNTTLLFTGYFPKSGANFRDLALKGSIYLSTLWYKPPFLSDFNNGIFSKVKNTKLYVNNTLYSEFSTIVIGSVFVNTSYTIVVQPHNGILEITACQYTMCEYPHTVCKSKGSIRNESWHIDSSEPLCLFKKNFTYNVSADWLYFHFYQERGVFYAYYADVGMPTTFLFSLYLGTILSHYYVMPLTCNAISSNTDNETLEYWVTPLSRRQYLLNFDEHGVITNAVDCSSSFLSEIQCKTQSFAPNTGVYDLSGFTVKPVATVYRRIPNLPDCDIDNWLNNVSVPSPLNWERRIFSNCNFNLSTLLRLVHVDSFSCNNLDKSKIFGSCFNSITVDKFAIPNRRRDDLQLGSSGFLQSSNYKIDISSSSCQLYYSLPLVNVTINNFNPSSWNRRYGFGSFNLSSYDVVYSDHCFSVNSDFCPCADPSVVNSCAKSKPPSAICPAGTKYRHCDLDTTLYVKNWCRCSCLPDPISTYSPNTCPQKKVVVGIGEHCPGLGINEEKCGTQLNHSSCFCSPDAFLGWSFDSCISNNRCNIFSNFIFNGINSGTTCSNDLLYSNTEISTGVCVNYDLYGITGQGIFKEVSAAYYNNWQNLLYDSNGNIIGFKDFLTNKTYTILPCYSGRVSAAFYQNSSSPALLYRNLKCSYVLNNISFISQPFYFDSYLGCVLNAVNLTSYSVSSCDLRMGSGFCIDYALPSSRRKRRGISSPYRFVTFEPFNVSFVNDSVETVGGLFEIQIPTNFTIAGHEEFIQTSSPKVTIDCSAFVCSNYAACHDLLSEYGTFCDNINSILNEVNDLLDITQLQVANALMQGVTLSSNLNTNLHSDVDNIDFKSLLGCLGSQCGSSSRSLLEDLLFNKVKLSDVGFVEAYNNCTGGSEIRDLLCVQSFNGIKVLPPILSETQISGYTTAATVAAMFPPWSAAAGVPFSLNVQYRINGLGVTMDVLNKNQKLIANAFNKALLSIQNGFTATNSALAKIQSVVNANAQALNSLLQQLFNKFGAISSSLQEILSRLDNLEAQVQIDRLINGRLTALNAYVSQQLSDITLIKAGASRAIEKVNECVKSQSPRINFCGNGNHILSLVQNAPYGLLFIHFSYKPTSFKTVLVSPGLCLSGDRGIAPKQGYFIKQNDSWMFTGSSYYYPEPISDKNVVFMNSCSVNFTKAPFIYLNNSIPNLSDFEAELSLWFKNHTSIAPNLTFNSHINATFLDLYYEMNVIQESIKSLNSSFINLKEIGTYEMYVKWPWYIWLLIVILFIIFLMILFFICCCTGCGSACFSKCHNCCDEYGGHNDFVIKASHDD

B1: mAb 1871 IgG1 (wild-type human IgG1 Fc) (antibody, V domains shown)
VH: EVQLVESGGGLVKPGGSLRLSCVASGFSFSIYSMNWVRQAPGKGLEWVSYISSSSSYKYYADSVKGRFSVSRDNAKNSLYLQLNGLRAEDTAVYYCARDGYCPKGVCTYYGMDVWGQGTTVTVSA
VL: EIVMTQSPATLSVSPGERVTLSCRASQSVRSRLAWFQQKPGQAPRLLIYDASIRATGIPARFSGSGSGTEFTLIISSLQSEDFAVYYCQQYDNWPPAYTFGQGTKLEIK
notes: also called ADPT01871; source: HEK-293F, transiently transfected, purified (protein A, SEC Superdex200)
binds: all assays above
